The target of the assay is FLAG-Aac2 (S. cerevisiae) (UniProt P18239). Description: co-IP.

Drawing on article PMC7455186, this text covers percent decrease of the amount co-immunoprecipitated after BKA, against CATR for two substances.

Chain of UniProt P18239 (P18239 whole entry): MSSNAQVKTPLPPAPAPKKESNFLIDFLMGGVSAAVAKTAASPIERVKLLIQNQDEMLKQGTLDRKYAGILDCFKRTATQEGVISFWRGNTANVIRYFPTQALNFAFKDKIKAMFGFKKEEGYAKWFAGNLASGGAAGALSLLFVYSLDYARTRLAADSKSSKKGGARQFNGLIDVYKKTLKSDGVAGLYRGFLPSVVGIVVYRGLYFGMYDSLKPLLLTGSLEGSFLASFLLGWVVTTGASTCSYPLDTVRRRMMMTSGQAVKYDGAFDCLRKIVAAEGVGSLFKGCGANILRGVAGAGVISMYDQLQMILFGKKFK

The substance “respiratory complex III (from UniProt P07256 27-457; P07257 17-368; P08067 31-215; P00127 1-147)” gave a percent decrease of the amount co-immunoprecipitated after BKA, against CATR of 25%.

As to “respiratory complex IV (from UniProt P00401 1-534; P04037 26-155)”, the percent decrease of the amount co-immunoprecipitated after BKA, against CATR is 50%.
